# B1: HDAC6 (parent)
# chain: KMKTRELHRESSNFDSIYICPSTF
# Variants of: B1
# Experiment: protein stability index of a GFP-peptide fusion (GPS, HEK-293T) (PSI 1-6); higher = more stable
# Settings: c terminus: a fixed tail appended
# 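Also: lentivirally expressed fusions sorted by FACS into six bins by GFP to DsRed ratio, PSI derived from sequencing read proportions per bin multiplied by bin number.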
row,Variant,protein stability index
1,KMKTRELHRESSNFDSIYICCSTF [P21C],2.71
2,KMKTRELHRESSNFDSIYICKSTF [P21K],2.32
3,KMKTRELHRESSNFDSIYICFSTF [P21F],2.44
4,KMKTRELHRESSNFDSIYECPSTF [I19E],3.81
5,KMKTRELHRESSNFDSIYACPSTF [I19A],2.74
6,KMKTRELHRESSNFDSIYWCPSTF [I19W],3.01
7,KMKTRELHRESSNFDSIYDCPSTF [I19D],3.44
8,KMKTRELHRESSNFDSIYICPSEF [T23E],1.96
9,KMKTRELHRESSNFDSIYICPSMF [T23M],2.44
10,KMKTRELHRESSNFDSIYICPSVF [T23V],2.92
11,KMKTRELHRESSNFDSIYICPSKF [T23K],2.25
12,KMKTRELHRESSNFDSIYICPSGF [T23G],2.46
13,KMKTRELHRESSNFDSIYICPSLF [T23L],2.21
14,KMKTRELHRESSNFDSIYICPSRF [T23R],2.05
15,KMKTRELHRESSNFDSIYICPSCF [T23C],2.5
16,KMKTRELHRESSNFDSIYICPSWF [T23W],1.62
17,KMKTRELHRESSNFDRIYICPSTF [S16R],2.83
18,KMKTRELHRESSNFDVIYICPSTF [S16V],2.12
19,KMKTRELHRESSNFDTIYICPSTF [S16T],2.62
20,KMKTRELHRESSNFDMIYICPSTF [S16M],1.66
21,KMKTRELHRESSNFDYIYICPSTF [S16Y],1.85
22,KMKTRELHRESSNFDPIYICPSTF [S16P],2.47
23,KMKTRELHRESSNFDCIYICPSTF [S16C],1.76
24,KMKTRELHRESSNFDSIVICPSTF [Y18V],2.86

row,Variant,protein stability index
1,KMKTRELHRESSNFDSIAICPSTF [Y18A],4.07
2,KMKTRELHRESSNFDSILICPSTF [Y18L],2.82
3,KMKTRELHRESSNFDSIGICPSTF [Y18G],3.09
4,KMKTRELHRESSNFDSINICPSTF [Y18N],3.56
5,KMKTRELHRESSNFDSICICPSTF [Y18C],2.29
6,KMKTRELHRHSSNFDSIYICPSTF [E10H],1.87
7,KMKTRELHRPSSNFDSIYICPSTF [E10P],1.82
8,KMKTRELHRVSSNFDSIYICPSTF [E10V],2.04
9,KMKTRELHRKSSNFDSIYICPSTF [E10K],2.71
10,KMKTRELHRISSNFDSIYICPSTF [E10I],1.85
11,KMKTRELHRASSNFDSIYICPSTF [E10A],2.51
12,KMKTRELHRYSSNFDSIYICPSTF [E10Y],1.56
13,KMKTRELHRESSNFDSIYICPSTS [F24S],2.96
14,KMKTRELHRESSNFDSIYICPSTP [F24P],2.75
15,KMKTRELHRESSNFDSIYICPSTI [F24I],2.31
16,KMKTRELHRESSNFDSIYICPSTM [F24M],2.65
17,KMKTRELHRESSNFDSIYICPSTQ [F24Q],2.62
18,KMKTRELHRESSNFDSIYICPSTT [F24T],3.65
19,KMKTRELHRESSNFDSIYICPSTH [F24H],2.76
20,KMKTRELHRESSNFDSIYICPSTL [F24L],2.69
21,KMKTRELHRESSNFDSIYICPSTA [F24A],3.73
22,KMKTRELHRESSNFDSIYICPSTE [F24E],3.87
23,KMKTRELHRESSNFDSIYICPSTC [F24C],2.97
24,KMKTRELHREMSNFDSIYICPSTF [S11M],1.61

row,Variant,protein stability index
1,KMKTRELHRELSNFDSIYICPSTF [S11L],1.66
2,KMKTRELHRETSNFDSIYICPSTF [S11T],2.41
3,KMKTRELHREESNFDSIYICPSTF [S11E],2.2
4,KMKTRELHREVSNFDSIYICPSTF [S11V],2.3
5,KMKTRELHRECSNFDSIYICPSTF [S11C],1.75
6,KMKTRELHREWSNFDSIYICPSTF [S11W],2.85
7,KMKTRELHREFSNFDSIYICPSTF [S11F],1.71
8,NMKTRELHRESSNFDSIYICPSTF [K1N],2.12
9,DMKTRELHRESSNFDSIYICPSTF [K1D],3.04
10,RMKTRELHRESSNFDSIYICPSTF [K1R],1.38
11,YMKTRELHRESSNFDSIYICPSTF [K1Y],1.59
12,EMKTRELHRESSNFDSIYICPSTF [K1E],2.84
13,SMKTRELHRESSNFDSIYICPSTF [K1S],2.3
14,FMKTRELHRESSNFDSIYICPSTF [K1F],1.92
15,KMKTNELHRESSNFDSIYICPSTF [R5N],2.46
16,KMKTSELHRESSNFDSIYICPSTF [R5S],2.21
17,KMKTTELHRESSNFDSIYICPSTF [R5T],2.15
18,KMKTAELHRESSNFDSIYICPSTF [R5A],1.98
19,KMKTWELHRESSNFDSIYICPSTF [R5W],1.72
20,KMKTPELHRESSNFDSIYICPSTF [R5P],2.36
21,KMKTEELHRESSNFDSIYICPSTF [R5E],2.73
22,KMKTIELHRESSNFDSIYICPSTF [R5I],1.83
23,KMKTLELHRESSNFDSIYICPSTF [R5L],3.32
24,KMKTMELHRESSNFDSIYICPSTF [R5M],2.4

row,Variant,protein stability index
1,KMKTQELHRESSNFDSIYICPSTF [R5Q],2.08
2,KMKTKELHRESSNFDSIYICPSTF [R5K],2.38
3,KMKTRELHHESSNFDSIYICPSTF [R9H],2.15
4,KMKTRELHSESSNFDSIYICPSTF [R9S],2.27
5,KMKTRELHCESSNFDSIYICPSTF [R9C],2.39
6,KMKTRELHAESSNFDSIYICPSTF [R9A],2.27
7,KMKTRELHGESSNFDSIYICPSTF [R9G],2.38
8,KMKTRELHWESSNFDSIYICPSTF [R9W],1.78
9,KMKTRELHLESSNFDSIYICPSTF [R9L],2.07
10,KMKTRELHTESSNFDSIYICPSTF [R9T],2.39
11,KMKTRELDRESSNFDSIYICPSTF [H8D],2.22
12,KMKTRELERESSNFDSIYICPSTF [H8E],2.32
13,KMKTRELSRESSNFDSIYICPSTF [H8S],2.92
14,KMKTRELFRESSNFDSIYICPSTF [H8F],1.69
15,KMKTRELIRESSNFDSIYICPSTF [H8I],1.38
16,KMKTRELNRESSNFDSIYICPSTF [H8N],2.07
17,KMKTRELARESSNFDSIYICPSTF [H8A],1.98
18,KMKTRELMRESSNFDSIYICPSTF [H8M],1.97
19,KMKTRELRRESSNFDSIYICPSTF [H8R],2.22
20,KMKTRELYRESSNFDSIYICPSTF [H8Y],1.56
21,KMKTRELCRESSNFDSIYICPSTF [H8C],1.6
22,KMKTRELTRESSNFDSIYICPSTF [H8T],2.21

# — the supplement of paper PMC10567573
